Nine molecules from patent publication US20040146507A1 (Genentech, published 2004) can be followed below.

Where two headings read alike, the source gives them in different places.

Test [1] deals with T1, rhesus CD11a (rhesus, UniProt H9Z8N3 26-1169).
T1 construct: whole, on cells; On rhesus peripheral blood lymphocytes or leukocytes; also called rhCD11a
T1 sequence: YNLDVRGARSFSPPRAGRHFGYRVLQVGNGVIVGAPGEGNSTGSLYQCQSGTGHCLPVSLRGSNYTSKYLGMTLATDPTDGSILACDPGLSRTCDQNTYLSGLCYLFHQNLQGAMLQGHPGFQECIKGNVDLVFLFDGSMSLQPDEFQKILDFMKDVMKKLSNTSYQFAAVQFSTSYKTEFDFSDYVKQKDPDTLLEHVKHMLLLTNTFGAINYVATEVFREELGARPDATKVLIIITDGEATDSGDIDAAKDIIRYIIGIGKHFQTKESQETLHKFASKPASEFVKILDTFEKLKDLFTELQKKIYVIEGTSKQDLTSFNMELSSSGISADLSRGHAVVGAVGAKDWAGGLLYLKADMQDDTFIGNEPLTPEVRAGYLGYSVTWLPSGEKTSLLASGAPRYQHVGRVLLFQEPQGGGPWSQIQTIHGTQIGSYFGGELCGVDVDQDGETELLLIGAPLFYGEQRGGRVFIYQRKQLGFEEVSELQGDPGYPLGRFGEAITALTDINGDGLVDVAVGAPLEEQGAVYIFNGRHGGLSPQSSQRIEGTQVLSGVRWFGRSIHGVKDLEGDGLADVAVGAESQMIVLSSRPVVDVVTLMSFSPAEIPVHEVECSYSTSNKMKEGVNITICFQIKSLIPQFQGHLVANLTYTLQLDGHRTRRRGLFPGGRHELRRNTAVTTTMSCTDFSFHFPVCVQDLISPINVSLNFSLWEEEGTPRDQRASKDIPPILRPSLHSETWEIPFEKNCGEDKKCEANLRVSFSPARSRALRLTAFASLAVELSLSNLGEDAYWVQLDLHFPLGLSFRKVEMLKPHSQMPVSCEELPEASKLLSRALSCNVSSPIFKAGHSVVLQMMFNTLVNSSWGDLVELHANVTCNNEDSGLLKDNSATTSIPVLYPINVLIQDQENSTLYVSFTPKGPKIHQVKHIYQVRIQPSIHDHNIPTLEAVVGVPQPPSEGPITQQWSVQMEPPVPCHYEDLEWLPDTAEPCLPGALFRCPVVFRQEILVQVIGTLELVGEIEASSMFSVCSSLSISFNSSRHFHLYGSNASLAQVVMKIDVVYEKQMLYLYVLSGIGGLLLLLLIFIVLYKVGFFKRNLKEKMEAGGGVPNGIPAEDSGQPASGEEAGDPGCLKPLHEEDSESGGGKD
In words: rhesus PBL binding.

For test [2], the target named is T2, human CD11a (human, UniProt P20701 26-1170).
T2 construct: whole, on cells; On Jurkat T-cells or human peripheral blood mononuclear cells, as part of LFA-1; also called CD11a on Jurkat cells; alpha subunit of LFA-1
In words: FACScan, Jurkat cells. Here is the method:
(§1) Aliquots of 10⁶ Jurkat T-cells were incubated with serial dilutions of humanized and control antibodies in PBS-0.1% BSA-10 mM sodium azide for 45 min at 4° C. The cells were washed and then incubated in fluorescein-conjugated goat anti-human F(ab′)₂ (Organon Teknika, Westchester, Pa.) for 45 min at 4° C. Cells were washed and analysed on a FACScan (Becton Dickinson, Mountain View, Calif.). 8×10³ cells were acquired by list mode and gated by forward light scatter versus side light scatter, thereby excluding dead cells and debris.

The target of test [3] is T1, rhesus CD11a. Description: rhesus PBL binding. The source holds these as a separate data set.
Test [4] addresses T1, rhesus CD11a. In words: rhesus PBL binding. The source holds these as a separate data set.
Test [5] has as its target T2, human CD11a. Description: FACScan, Jurkat cells. Here is the method: as §1
(§2) To determine which CDR residues were involved in binding to human CD11a an alanine-scan (Cunningham et al., Science 244:1081 (1989)) was performed on the CDR residues of HuIgG1. Each mutant was tested for binding to CD11a on Jurkat cells. In the light chain only CDR-L3 contributes to binding.
This is another data set of the same source.
Target sequence in this assay (P20701 26-1170): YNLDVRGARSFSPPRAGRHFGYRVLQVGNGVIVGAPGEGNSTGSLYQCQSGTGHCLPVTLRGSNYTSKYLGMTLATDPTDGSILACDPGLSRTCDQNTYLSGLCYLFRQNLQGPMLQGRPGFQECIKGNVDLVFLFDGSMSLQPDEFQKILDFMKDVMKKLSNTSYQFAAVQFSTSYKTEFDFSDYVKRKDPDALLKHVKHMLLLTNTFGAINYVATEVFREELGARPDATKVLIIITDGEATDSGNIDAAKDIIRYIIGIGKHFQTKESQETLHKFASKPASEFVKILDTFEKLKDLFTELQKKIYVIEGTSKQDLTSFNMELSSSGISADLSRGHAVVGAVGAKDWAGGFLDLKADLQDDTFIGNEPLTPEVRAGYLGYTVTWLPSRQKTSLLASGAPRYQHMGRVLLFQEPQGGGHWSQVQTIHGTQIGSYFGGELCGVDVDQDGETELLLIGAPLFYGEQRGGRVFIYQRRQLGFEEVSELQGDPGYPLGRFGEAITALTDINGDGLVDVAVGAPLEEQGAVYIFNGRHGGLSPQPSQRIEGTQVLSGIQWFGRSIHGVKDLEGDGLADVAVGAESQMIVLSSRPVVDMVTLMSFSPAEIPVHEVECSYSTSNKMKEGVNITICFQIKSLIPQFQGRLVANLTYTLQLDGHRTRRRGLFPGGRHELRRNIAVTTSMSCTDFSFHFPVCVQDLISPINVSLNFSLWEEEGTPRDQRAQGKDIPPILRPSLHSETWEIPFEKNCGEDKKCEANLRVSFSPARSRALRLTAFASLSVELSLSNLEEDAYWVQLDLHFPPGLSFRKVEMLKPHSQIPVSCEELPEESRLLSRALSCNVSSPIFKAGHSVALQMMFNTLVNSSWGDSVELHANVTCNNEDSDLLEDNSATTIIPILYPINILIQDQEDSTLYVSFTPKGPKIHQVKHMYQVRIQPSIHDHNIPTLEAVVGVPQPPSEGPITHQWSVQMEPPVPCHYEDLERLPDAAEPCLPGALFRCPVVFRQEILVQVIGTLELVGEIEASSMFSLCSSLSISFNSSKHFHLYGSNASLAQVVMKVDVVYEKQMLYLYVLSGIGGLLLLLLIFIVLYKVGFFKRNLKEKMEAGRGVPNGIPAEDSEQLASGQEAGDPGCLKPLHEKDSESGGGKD

In test [6] the target is T1, rhesus CD11a. Description: rhesus PBL binding. The source holds these as a separate data set.
Test [7] addresses T2, human CD11a. In words: FACScan, Jurkat cells. Here is the method: as §1, §2
This is another data set of the same source.

Test [8] addresses T1, rhesus CD11a. Description: rhesus PBL binding; end of range assigned by the printed EC50s.
Test [9] addresses T2, human CD11a. Description: cell-based or functional assay.

B1: HuIgG1 mutant AspH54Ala (antibody, V domains shown)
VH: EVQLVESGGGLVQPGGSLRLSCAASGYSFTGHWMNWVRQAPGKGLEWVGMIHPSASETRYNQKFKDRFTISVDKSKNTLYLQMNSLRAEDTAVYYCARGIYFYGTTYFDYWGQGTLVTVSS
VL: DIQMTQSPSSLSASVGDRVTITCRASKTISKYLAWYQQKPGKAPKLLIYSGSTLQSGVPSRFSGSGSGTDFTLTISSLQPEDFATYYCQQHNEYPLTFGQGTKVEIK
notes: HuIgG1 mutant, human IgG1; Kabat numbering
As to B1, the results for the “Var.EC50/HuIgG1 EC50” value with rhesus CD11a [1] and with human CD11a [5] were 0.3 ratio and 147 ratio, respectively. The “Mutant EC50/HuIgG1 EC50” value with human CD11a [2] was found to be 147 ratio; with rhesus CD11a [4], 0.3 ratio. Besides, in the test with rhesus CD11a [3], the “fold improvement in binding over HuIgG1” value is 3 fold.

B2: HuIgG1 mutant H2C11 (antibody, V domains shown)
VH: EVQLVESGGGLVQPGGSLRLSCAASGYSFTGHWMNWVRQAPGKGLEWVGMIAPASSNTRYNQKFKDRFTISVDKSKNTLYLQMNSLRAEDTAVYYCARGIYFYGTTYFDYWGQGTLVTVSS
VL: DIQMTQSPSSLSASVGDRVTITCRASKTISKYLAWYQQKPGKAPKLLIYSGSTLQSGVPSRFSGSGSGTDFTLTISSLQPEDFATYYCQQHNEYPLTFGQGTKVEIKR
Regarding B2, the “Var.EC50/HuIgG1 EC50” value with rhesus CD11a [6] is 0.002 ratio; with human CD11a [7], 24.9 ratio. In the test with rhesus CD11a [3], this molecule showed an EC50 of 0.11 nM. In addition, in the test with rhesus CD11a [8], the “fold improvement over EC50 of HuIgG1 for rhesus CD11a” value is 240 to 415 fold. Further, the “fold weaker than EC50 of HuIgG1 for human CD11a” value with rhesus CD11a [8] was in the range of 3 to 5 fold.

B3: HuIgG1 mutant AspH54Asn (antibody, V domains shown)
VH: EVQLVESGGGLVQPGGSLRLSCAASGYSFTGHWMNWVRQAPGKGLEWVGMIHPSNSETRYNQKFKDRFTISVDKSKNTLYLQMNSLRAEDTAVYYCARGIYFYGTTYFDYWGQGTLVTVSS
VL: DIQMTQSPSSLSASVGDRVTITCRASKTISKYLAWYQQKPGKAPKLLIYSGSTLQSGVPSRFSGSGSGTDFTLTISSLQPEDFATYYCQQHNEYPLTFGQGTKVEIK
notes: as for B1
In the case of B3, the “Mutant EC50/HuIgG1 EC50” value with human CD11a [2] was found to be 26 ratio; with rhesus CD11a [4] it was 0.1 ratio. In addition, the “fold improvement in binding over HuIgG1” value with rhesus CD11a [3] was determined as 10 fold.

B4: HuIgG1 mutant AspH54Ser (antibody, V domains shown)
VH: EVQLVESGGGLVQPGGSLRLSCAASGYSFTGHWMNWVRQAPGKGLEWVGMIHPSSSETRYNQKFKDRFTISVDKSKNTLYLQMNSLRAEDTAVYYCARGIYFYGTTYFDYWGQGTLVTVSS
VL: DIQMTQSPSSLSASVGDRVTITCRASKTISKYLAWYQQKPGKAPKLLIYSGSTLQSGVPSRFSGSGSGTDFTLTISSLQPEDFATYYCQQHNEYPLTFGQGTKVEIK
notes: HuIgG1 mutant, human IgG1; Kabat numbering; also called AspH54 change to Ser
In the case of B4, the “Mutant EC50/HuIgG1 EC50” value with rhesus CD11a [4] is 0.9 ratio.

B5: HuIgG1 mutant H2A1 (antibody, V domains shown)
VH: EVQLVESGGGLVQPGGSLRLSCAASGYSFTGHWMNWVRQAPGKGLEWVGMIAPADSETRYNQKFKDRFTISVDKSKNTLYLQMNSLRAEDTAVYYCARGIYFYGTTYFDYWGQGTLVTVSS
VL: DIQMTQSPSSLSASVGDRVTITCRASKTISKYLAWYQQKPGKAPKLLIYSGSTLQSGVPSRFSGSGSGTDFTLTISSLQPEDFATYYCQQHNEYPLTFGQGTKVEIK
notes: as for B1
As to B5, the “Var.EC50/HuIgG1 EC50” value with rhesus CD11a [1] stood at 0.013 ratio; with rhesus CD11a [6], 0.013 ratio; in the test with human CD11a [7], 10.8 ratio; with human CD11a [5], 10.8 ratio. Further, the “fold improvement in binding over HuIgG1” value with rhesus CD11a [3] was 77 fold.

B6: HuIgG1 mutant AspH54Gln (antibody, V domains shown)
VH: EVQLVESGGGLVQPGGSLRLSCAASGYSFTGHWMNWVRQAPGKGLEWVGMIHPSQSETRYNQKFKDRFTISVDKSKNTLYLQMNSLRAEDTAVYYCARGIYFYGTTYFDYWGQGTLVTVSS
VL: DIQMTQSPSSLSASVGDRVTITCRASKTISKYLAWYQQKPGKAPKLLIYSGSTLQSGVPSRFSGSGSGTDFTLTISSLQPEDFATYYCQQHNEYPLTFGQGTKVEIK
notes: HuIgG1 mutant, human IgG1; Kabat numbering; also called AspH54 change to Gln
As to B6, the figures for the “Mutant EC50/HuIgG1 EC50” value with human CD11a [2] and in the test with rhesus CD11a [4] were 20 ratio and 4.4 ratio, respectively.

B7: HuIgG1 mutant AspH54Lys (antibody, V domains shown)
VH: EVQLVESGGGLVQPGGSLRLSCAASGYSFTGHWMNWVRQAPGKGLEWVGMIHPSKSETRYNQKFKDRFTISVDKSKNTLYLQMNSLRAEDTAVYYCARGIYFYGTTYFDYWGQGTLVTVSS
VL: DIQMTQSPSSLSASVGDRVTITCRASKTISKYLAWYQQKPGKAPKLLIYSGSTLQSGVPSRFSGSGSGTDFTLTISSLQPEDFATYYCQQHNEYPLTFGQGTKVEIK
notes: HuIgG1 mutant, human IgG1; Kabat numbering; also called AspH54 change to Lys
B7: the “Mutant EC50/HuIgG1 EC50” value in the test with rhesus CD11a [4] was 3.8 ratio.

B8: HuIgG1 mutant H2 (antibody, V domains shown)
VH: EVQLVESGGGLVQPGGSLRLSCAASGYSFTGHWMNWVRQAPGKGLEWVGMIAPADAETRYNQKFKDRFTISVDKSKNTLYLQMNSLRAEDTAVYYCARGIYFYGTTYFDYWGQGTLVTVSS
VL: DIQMTQSPSSLSASVGDRVTITCRASKTISKYLAWYQQKPGKAPKLLIYSGSTLQSGVPSRFSGSGSGTDFTLTISSLQPEDFATYYCQQHNEYPLTFGQGTKVEIK
notes: as for B1
B8: the “Var.EC50/HuIgG1 EC50” value with rhesus CD11a [1] is 0.055 ratio; in the test with human CD11a [5], 14.1 ratio. Moreover, the “fold better binding than HuIgG1” value with rhesus CD11a [3] was found to be 18 fold.

B9: chimeric MHM24 IgG1 (antibody, V domains shown)
VH: EVQLQQPGAELMRPGASVKLSCKASGYSFTGHWMNWVRQRPGQGLEWIGMIHPSDSETRLNQKFKDKATLTVDKSSSSAYMQLSSPTSEDSAVYYCARGIYFYGTTYFDYWGQGTTLTVSS
VL: DVQITQSPSYLAASPGETISINCRASKTISKYLAWYQEKPGKTNKLLIYSGSTLQSGIPSRFSGSGSGTDFTLTISSLEPEDFAMYYCQQHNEYPLTFGTGTKLELKR
notes: Murine VL and VH fused to human constant light and heavy (IgG1) chains; also called chIgG1; chimeric IgG1
Take B9: in the test with human CD11a [2], the EC50 was 5.2 ng/mL and the “EC50 F(ab)/EC50 F(ab)-2” value turned out to be 0.006 ratio. Further, the “IC50, blocking of cell adhesion, Jurkat: HuK” value in the test with human CD11a [9] amounted to 0.1 nM.

As usually defined, the EC50 is the concentration at which the effect is half-maximal. Read a low EC50 as a more potent agent.
